Data published in US11485776B2, “Antibodies against infectious diseases” (priority 2015, dated 2022).
“Also recorded” adds a separate entry of the source.

Columns and labels:
[1] = tested on: ENO1 proteins on Candida spp. (C. glabrate); type: binding
From the text: (A) The total cell lysates of 5 Candida spp. were visualized on SDS-PAGE (left). After transferred onto the NC membranes, they were probed with purified anti-CaENO1 from 7th immunized chicken (1:3,000) (middle), or with CaS1 scFv (right) as described in material and methods. Lanes 1-6 in (A) contained the total cell lysates of C. albicans, C. krusei, C. tropicalis, C. parapsilosis and C. glabrate and purified recombinant CaENO1, respectively. […] (C) Total cell lysate from FLU^R and FLU^s and C. tropicalis (lanes 1-5 represent CT6-29, CT11-52, CT6-50, CT12-54, BCRC20520, respectively) by SDS-PAGE (left) and probed with CaS1 scFv by Western blot (right). (D) The purified ENO1 proteins of C. albicans, S. pneumonia, S. aureus, mouse and human were visualized on SDS-PAGE (left). After transferred onto the NC membranes, they were probed with purified CaS1 scFv (right) as described. Lane M contained protein markers.
To detect the presence of ENO1 proteins, the purified recombinant ENO1 protein or cell lysates of five Candida spp were subjected to SDS-PAGE analysis, transferred onto nitrocellulose membranes (Amersham Biosciences, UK) and then blocked with 5% skim milk in TBST for 1 hr. The anti-CaENO1 IgY from chicken after 7th immunization (1:3,000) or purified CaS1 scFv antibody (1 μg/ml) were added and incubated for 1 hr at room temperature. After vigorous washings, horseradish peroxidase (HRP)-conjugated polyclonal donkey anti-chicken IgY antibodies (1:3,000) (Bethyl Laboratories, Montgomery, Tex., USA) were added and incubated for an additional 1 hr for detecting the bound IgY antibodies. However, goat anti-chicken light chain antibodies (1:3,000) (Bethyl Laboratories, Montgomery, Tex., USA), followed by HRP-conjugated donkey anti-goat IgG antibodies (Jackson ImmunoResearch, USA) were used for detecting the bound scFv antibodies. After washings as above, the membranes were developed with diaminobenzidine (DAB) or ECL substrate. The ImageQuant LAS4500 was used for ECL intensity detection.
This CaS1 scFv was evaluated for its binding activity to different species of Candida. Five common strains of Candida were obtained, total lysate of five species Candida were analyzed on SDS-PAGE (FIG. 6A left) and subsequent Western blot.

mENO1 = molecular target: T1, mENO1 (Mus musculus, UniProt P17182); test: Western blot on purified mouse ENO1 protein; type: binding
T1 construct: His; made in house; host or cells: E. coli BL21 (by 'in the same way')
From the text: Lane M contained protein markers.
The ImageQuant LAS4500 was used for ECL intensity detection.

C. albicans = test: Flow cytometry of C. albicans, propidium iodide cell death; type: cell-based, C. albicans SC 5314; conditions: 100 ug antibody, 10^5 cells, 2 hours at 37° C.
Experimental: (A) C. albicans SC 5314 were cultured overnight and 10^5 cells were added to each tube with 2 ml YPD medium. Experiment antibodies were added to each tube (1) Anti-CaENO1 IgY (100 ug) (2) Control scFv (100 ug) (3) scFv CaS1 (100 ug) (4) PBS, and cultured 2 hours at 37° C. in an incubator. Goat anti-chicken light chain (1:1500) antibody was used as detected antibody; FITC donkey anti-goat antibody (1:1000) was used as developed antibody to detect the reaction. Propidium iodide (PI) (1 ug/ml) was used to detect cell death. (B) Quantification of flow cytometry result in the panel A (*, p<0.05;**, p<0.01). Flow cytometry is represented as mean±SD of the duplicated experiment.
Anti-CaENO1 IgY, scFv CaS1 and control scFv were contacted with C. albicans and then subjected to flow cytometry assay. Anti-CaENO1 IgY, scFv CaS1 and control scFv show 89.7+/−2.8%, 46.64+/−3.1% and 23+/−2.3% FITC fluorescence reaction (FIG. 7A), representing that the antibody can bind to alpha-enolase on the surface of C. albicans.

T1 sequence (P17182 whole entry): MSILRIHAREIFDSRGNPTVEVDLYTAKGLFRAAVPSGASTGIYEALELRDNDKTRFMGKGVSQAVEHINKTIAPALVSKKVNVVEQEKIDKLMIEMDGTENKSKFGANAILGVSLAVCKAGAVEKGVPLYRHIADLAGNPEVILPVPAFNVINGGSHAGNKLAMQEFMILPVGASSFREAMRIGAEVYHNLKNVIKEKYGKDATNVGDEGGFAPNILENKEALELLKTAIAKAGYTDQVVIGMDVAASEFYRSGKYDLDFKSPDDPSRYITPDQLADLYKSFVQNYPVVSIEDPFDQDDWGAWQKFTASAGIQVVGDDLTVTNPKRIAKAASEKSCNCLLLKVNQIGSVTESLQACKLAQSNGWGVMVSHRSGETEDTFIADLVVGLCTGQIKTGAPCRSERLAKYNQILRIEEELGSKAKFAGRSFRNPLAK

B1: CaS1 scFv: anti-CaENO1 scFv monoclonal antibody from chicken phage library; light chain SEQ ID NO:11, heavy chain SEQ ID NO:12 (antibody, V domains shown)
VH: TVTLDESGGGLQTPRGALSLVCKASGFTFIDYGMQWVRQAPGKGLEWVAGIGSSGSSTNYGAAVKGRATISRDDGQSTVRLQLNNLRAEDTGTYYCAKSAGGYCVNGAGCNGGSIDAWGHGTEVIVSS
VL: ALTQPSSVSANLGGTVKITCSGGSGSYGWYQQKSPGSAPVTVIYSNNQRPSNIPSRFSGSPSGSTGTLTITGVQADDEAVYFCGSRDSSYVGVFGAGTTLTVL
modifications: scFv linker; amino acid sequence comprised in a heavy chain of an anti-CaENO1 scFv monoclonal antibody (CaS1); amino acid sequence comprised in a light chain of an anti-CaENO1 scFv monoclonal antibody (CaS1)
Question: How did the “Binding to ENO1 in total cell lysate of C. glabrate (Western blot)” value [1] turn out when B1 was run?
Answer: cannot react

Question: What about the “Binding to fluconazole resistance and susceptible C. glabrate from clinic (Western blot)” value [1] of the same molecule?
Answer: not

Question: And the “Binding to purified mENO1 (Western blot)” value (mENO1)?
Answer: very little; also recorded: weak cross reactivity

Question: And the “mortality rate of C. albicans (propidium iodide)” value (C. albicans)?
Answer: 37+/−0.8%
